Data published in publication PMC9122588, “Control of bacterial immune signaling by a WYL domain transcription factor”.

Target: T1, Pa CapW (Pseudomonas aeruginosa PA17, UniProt P0DX74 1-299)
T1 sequence: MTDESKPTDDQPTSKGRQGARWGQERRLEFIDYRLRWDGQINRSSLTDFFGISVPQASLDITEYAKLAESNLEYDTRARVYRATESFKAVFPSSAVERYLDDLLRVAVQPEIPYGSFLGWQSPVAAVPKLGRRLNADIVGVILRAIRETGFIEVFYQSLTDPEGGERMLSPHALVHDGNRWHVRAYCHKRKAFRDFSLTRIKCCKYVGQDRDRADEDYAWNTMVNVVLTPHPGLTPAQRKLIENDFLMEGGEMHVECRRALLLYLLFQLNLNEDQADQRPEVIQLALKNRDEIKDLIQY
Experiment: fluorescence polarization; 5 mM MgCl2; FP: 25 mM Tris pH 8.5, 50 mM NaCl, 5% glycerol, 5 mM MgCl2, 1 mM DTT, 0.01% NP-40 substitute, 50 nM DNA, 10 min, RT; EMSA: 50 mM Tris-HCl pH 8.5, 50 mM NaCl, 5
Conditions: protein: recombinant; tags: N-terminal His6-TEV, cleaved; chain copies: 2; label: 5'-6-FAM on one strand; blunt

B1: Probe #4 (dsDNA)
DNA 1: CTAAAAACTATGCGTATAGTAATAATACGC
DNA 2: GCGTATTATTACTATACGCATAGTTTTTAG
Question: With B1 as the binder, how does the Kd read?
Answer: 1000 ± 100 nM
